Ends that are not written are not given here. * marks the point of attachment. Biotin = O=C1N[C@H]2[C@H](CS[C@H]2CCCCC(=O)*)N1
T1: synthetic MUC1 epitope peptide APDTRPAPG (synthetic; human MUC1 VNTR sequence)
T1 construct: also called MUC1 peptide; source: synthetic peptide, bought: GenScript
T1 chain: APDTRPAPG

T2: N-terminally biotinylated synthetic MUC1 peptide biotin-GGS-APDTRPAPG (synthetic; human MUC1 VNTR sequence)
T2 construct: short peptide linker for immobilization to the SPR substrate; occurs in every repeat; also called biotinylated MUC1 peptide; surface-immobilized MUC1 peptide; source: synthetic peptide, bought: GenScript
T2 chain: Biotin-GGSAPDTRPAPG


Key:
Conditions in all cases: both partners purified
[1] = target: T3, MUC1 reporter construct, Tn glycans (Homo sapiens (by repeat sequence), UniProt P15941, O-glycans of Tn structure; 5 O-glycosylation sites); assay: far-Western, overlay or dot blot; immunoblot of MUC1 reporter constructs (10 ng per well, boiled in Laemmli buffer, 10% SDS gel, PVDF); 139H2 antibodies 1:1,000 in TSMT with 1% BSA, 1 h at RT; band intensities compared with a His-tag blot
T3 construct: also called MUC1 Tn fragment; MUC1-Tn; source: engineered HEK293 cells, gift from Christian Büll (Copenhagen Center for Glycomics), in PBS
T3 sequence (P15941 whole entry, looked up, the tested form may be a part): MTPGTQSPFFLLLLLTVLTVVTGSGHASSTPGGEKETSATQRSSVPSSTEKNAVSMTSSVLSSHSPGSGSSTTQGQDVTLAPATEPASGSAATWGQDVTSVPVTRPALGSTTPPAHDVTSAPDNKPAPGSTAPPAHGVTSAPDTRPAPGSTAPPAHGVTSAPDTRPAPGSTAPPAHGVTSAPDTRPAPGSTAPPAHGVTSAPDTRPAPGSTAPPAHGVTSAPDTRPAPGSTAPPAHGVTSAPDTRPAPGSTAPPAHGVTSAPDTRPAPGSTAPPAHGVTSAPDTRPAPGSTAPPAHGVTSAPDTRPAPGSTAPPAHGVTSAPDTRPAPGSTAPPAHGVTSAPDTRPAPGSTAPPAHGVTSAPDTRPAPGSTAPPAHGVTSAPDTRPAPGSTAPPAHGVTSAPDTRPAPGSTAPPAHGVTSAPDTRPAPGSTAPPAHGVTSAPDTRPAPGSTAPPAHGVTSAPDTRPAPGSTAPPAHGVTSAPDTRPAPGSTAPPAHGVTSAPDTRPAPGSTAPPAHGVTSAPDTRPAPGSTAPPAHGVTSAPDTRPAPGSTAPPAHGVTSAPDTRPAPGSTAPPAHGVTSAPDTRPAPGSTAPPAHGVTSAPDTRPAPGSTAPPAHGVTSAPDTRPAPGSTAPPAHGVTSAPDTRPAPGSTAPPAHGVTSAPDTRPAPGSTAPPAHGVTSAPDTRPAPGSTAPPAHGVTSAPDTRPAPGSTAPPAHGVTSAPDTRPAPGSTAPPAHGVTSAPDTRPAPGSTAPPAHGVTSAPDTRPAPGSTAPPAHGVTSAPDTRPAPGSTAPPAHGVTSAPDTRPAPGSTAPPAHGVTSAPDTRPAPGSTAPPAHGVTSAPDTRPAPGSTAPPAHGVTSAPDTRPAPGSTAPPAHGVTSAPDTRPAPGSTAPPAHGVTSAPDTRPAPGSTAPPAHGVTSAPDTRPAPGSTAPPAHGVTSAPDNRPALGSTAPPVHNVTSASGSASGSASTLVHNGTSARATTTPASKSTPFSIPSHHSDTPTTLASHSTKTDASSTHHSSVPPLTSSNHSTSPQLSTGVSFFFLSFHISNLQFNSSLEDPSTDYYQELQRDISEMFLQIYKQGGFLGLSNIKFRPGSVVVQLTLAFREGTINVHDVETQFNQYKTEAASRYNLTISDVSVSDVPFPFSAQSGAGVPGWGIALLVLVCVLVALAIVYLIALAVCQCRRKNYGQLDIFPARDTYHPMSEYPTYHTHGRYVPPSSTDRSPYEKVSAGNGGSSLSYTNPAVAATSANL

[2] = target: T4, MUC1 reporter construct, WT Core 2/ST glycans (Homo sapiens (by repeat sequence), UniProt P15941, O-glycans of WT Core 2/ST structure; 5 O-glycosylation sites); assay: as above
T4 construct: also called MUC1 WT fragment; MUC1-WT; source: engineered HEK293 cells, gift from Christian Büll (Copenhagen Center for Glycomics), in PBS
T4 sequence (P15941 whole entry, looked up, the tested form may be a part): as above

[3] = target: T5, MUC1 reporter construct, DiST glycans (Homo sapiens (by repeat sequence), UniProt P15941, O-glycans of DiST structure; 5 O-glycosylation sites); assay: as above
T5 construct: also called MUC1 DiST fragment; MUC1-DiST; source: engineered HEK293 cells, gift from Christian Büll (Copenhagen Center for Glycomics), in PBS
T5 sequence (P15941 whole entry, looked up, the tested form may be a part): as above

[4] = target: T6, MUC1 reporter construct, STn glycans (Homo sapiens (by repeat sequence), UniProt P15941, O-glycans of STn structure; 5 O-glycosylation sites); assay: as above
T6 construct: also called MUC1 STn fragment; MUC1-STn; source: engineered HEK293 cells, gift from Christian Büll (Copenhagen Center for Glycomics), in PBS
T6 sequence (P15941 whole entry, looked up, the tested form may be a part): as above

[5] = target: T1, synthetic MUC1 epitope peptide APDTRPAPG; assay: crystal structure; Fab and peptide mixed 1:2.5, 3.8 mg/ml in 50 mM Tris pH 8.0, 150 mM NaCl; sitting drop at 20°C; 2.5 Å
[6] = target: T2, N-terminally biotinylated synthetic …; assay: SPR; biotinylated peptide immobilised on a streptavidin chip (P-Strep), IBIS-MX96; 150 mM NaCl, 25 mM Hepes, 0.005% Tween-20; Fab as analyte, 10 twofold dilutions from 7.88 uM, kinetic titration without regeneration, 6-min association; equilibrium data fitted to a one-site (Langmuir) model

Row | Binder | binding result [1] | binding result [2] | binding result [3] | binding result [4] | binding result [5] | Kd [6] [µM]
1 | hybridoma-derived 139H2 IgG (antibody, V domains shown, as the heavy-chain variable domain of m1 (IGHV1-53); as the light-chain variable domain of m1 (IGKV8-30); mouse kappa light-chain constant region; Mouse IgG1, kappa; also called original hybridoma-derived 139H2; 139H2 WT; source: hybridoma culture supernatant (gift, NKI), purified (Protein G Sepharose); copies: 2 + 2) VH: QVQLQQSGAELVKPGASVKLSCKASGYTFTNYYMYWVLQRPGQGLEWIGEINPSNGGTTFNEKFKNKATLTVDKSSSTAYMQLNSLTSEDSAVYYCTRSRYGNYVNYGMDYWGQGTSVTVSS VL: DIVMSQSPSSLAVSVGEKVTMSCKSSQSLLYSNTQKNYLAWYQQKPGQSPKLLIYWASTRESGVPDRFTGSGSGTDFTLTISSVKAENLAVYYCQQYYRYPPTFGGGTKLELK | binds | binds | binds | binds |  | 
2 | recombinant (reverse-engineered) 139H2 IgG (antibody, V domains shown, also in PDB 8P6I; standard mouse Ig gamma-1 (IGHG1) constant region, linker and Fc region, UniProt P01868.1; mouse kappa light-chain constant region (kappa light-chain backbone); Mouse IgG1, kappa; also called synthetic recombinant 139H2; recombinant 139H2; source: HEK293 cells (ImmunoPrecise Antibodies), culture supernatant, purified (HisTrap Excel); copies: 2 + 2) VH: QVQLQQSGAELVKPGASVKLSCKASGYTFTNYYMYWVLQRPGQGLEWIGEINPSNGGTTFNEKFKNKATLTVDKSSSTAYMQLNSLTSEDSAVYYCTRSRYGNYVNYGMDYWGQGTSVTVSS VL: DIVMSQSPSSLAVSVGEKVTMSCKSSQSLLYSNTQKNYLAWYQQKPGQSPKLLIYWASTRESGVPDRFTGSGSGTDFTLTISSVKAENLAVYYCQQYYRYPPTFGGGTKLELK | binds | binds | binds | binds |  | 
3 | recombinant 139H2 Fab fragment (Fab, V domains shown, as the heavy-chain variable domain of m1 (IGHV1-53); mouse Ig gamma-1 (IGHG1) Fab constant region; as the light-chain variable domain of m1 (IGKV8-30); mouse kappa light-chain constant region, as in m1; also called monovalent Fab fragment; anti-MUC1 Fab; source: HEK293 cells (ImmunoPrecise Antibodies), culture supernatant, purified (HisTrap Excel, Superdex 200 SEC)) VH: QVQLQQSGAELVKPGASVKLSCKASGYTFTNYYMYWVLQRPGQGLEWIGEINPSNGGTTFNEKFKNKATLTVDKSSSTAYMQLNSLTSEDSAVYYCTRSRYGNYVNYGMDYWGQGTSVTVSS VL: DIVMSQSPSSLAVSVGEKVTMSCKSSQSLLYSNTQKNYLAWYQQKPGQSPKLLIYWASTRESGVPDRFTGSGSGTDFTLTISSVKAENLAVYYCQQYYRYPPTFGGGTKLELK |  |  |  |  | binds | 4.5

Source: article PMC10955041, “Reverse-engineering the anti-MUC1 antibody 139H2 by mass spectrometry–based de novo sequencing” (Life Science Alliance, 2024)
